Test results reported in paper PMC2784926.

Target: β-catenin (UniProt P35222)
Experiment: GST pull-down after in vitro kinase reaction
Details: reference: WT His-α-catenin with CK2α; sites S641

α-catenin (from UniProt P35221) His-α-catenin S641A with CK2α
binding against the reference: stronger
